Substrate in this series: CC(=O)N[C@H]1[C@H](Oc2ccc3c(C)cc(=O)oc3c2)O[C@H](CO)[C@@H](O)[C@@H]1O
Description: fluorescence, 4MU release, Michaelis-Menten. It is filed as biochemical, Bacteroides thetaiotaomicron. Particulars: unmodified wild-type enzyme. The source says:
fluorescence, 4MU release, Michaelis-Menten on BtGH84

B1: BtGH84 (Bacteroides thetaiotaomicron VPI-5482) (protein)
chain: QNVSLQPPPQQLIVQNKTIDLPAVYQLNGGEEANPHAVKVLKELLSGKQSSKKGMLISIGEKGDKSVRKYSRQIPDHKEGYYLSVNEKEIVLAGNDERGTYYALQTFAQLLKDGKLPEVEIKDYPSVRYRGVVEGFYGTPWSHQARLSQLKFYGKNKMNTYIYGPKDDPYHSAPNWRLPYPDKEAAQLQELVAVANENEVDFVWAIHPGQDIKWNKEDRDLLLAKFEKMYQLGVRSFAVFFDDISGEGTNPQKQAELLNYIDEKFAQVKPDINQLVMCPTEYNKSWSNPNGNYLTTLGDKLNPSIQIMWTGDRVISDITRDGISWINERIKRPAYIWWNFPVSDYVRDHLLLGPVYGNDTTIAKEMSGFVTNPMEHAESSKIAIYSVASYAWNPAKYDTWQTWKDAIRTILPSAAEELECFAMHNSDLGPNGHGYRREESMDIQPAAERFLKAFKEGKNYDKADFETLQYTFERMKESADILLMNTENKPLIVEITPWVHQFKLTAEMGEEVLKMVEGRNESYFLRKYNHVKALQQQMFYIDQTSNQNPYQPGVKTATRVIKPLIDRTFATVVKFFNQKFNAHLDATTDYMPHKMISNVEQIKNLPLQVKANRVLISPANEVVKWAAGNSVEIELDAIYPGENIQINFGKDAPCTWGRLEISTDGKEWKTVDLKQKESRLSAGLQKAPVKFVRFTNVSDEEQQVYLRQFVLTIEKK
notes: recombinant purified enzyme
With B1, the Km (commonly the substrate concentration at which the rate is half of its maximum) worked out at 1460 ± 220 µM; the turnover number (kcat) – broadly, the number of substrate molecules converted per active site and unit of time at saturation – was found to be 67 ± 5 s⁻¹; the kcat/Km (in general, the turnover number divided by the Michaelis constant) was 46000 ± 5900 M⁻¹ s⁻¹.

(Values after article PMC5674511, “Increase of enzyme activity through specific covalent modification with fragments” (Chemical Science, 2017).)
